# Numbering of substitutions follows the chain as printed. Names may count otherwise.
# B1: recombinant GRA9C (residues 195-288) with N-terminal 6x His tag, purified from E. coli (other)
# chain: HHHHHHMSVDPQCIMTREVVAQKLAGWTDNTHTATAGTPKKLLISFPSPDHIKEMVKEGYLPDNALERVLAGDFEGFSRTQMCLVSGRNRTECAFAEGQE
# notes: also called rGRA9C; 6xHis-GRA9C
# B2: recombinant GRA9C^Q200L (residues 195-288, Q200L) with N-terminal 6x His tag, purified from E. coli (other)
# chain: B1 chain with Q12L
# notes: also called rGRA9C^Q200L
# B3: GST-GRA9 C-terminal domain containing the Q200L mutation (other)
# chain: MSVDPLCIMTREVVAQKLAGWTDNTHTATAGTPKKLLISFPSPDHIKEMVKEGYLPDNALERVLAGDFEGFSRTQMCLVSGRNRTECAFAEGQE
# notes: also called GST-GRA9 C^Q200L; GST-GRA9 containing the Q200L mutation at the C-terminus
# Assays:
# [1] = target: endogenous mouse NLRP3 (bone marrow-derived macrophages and splenocytes of C57BL/6 mice) (mouse, UniProt Q8R4B8 1-1033); assay: immunoprecipitation from LPS- and ATP-treated BMDMs (FIG. 4D)
# [2] = target: T1, Flag-NLRP3 wild-type (WT), full-length, transfected into 293T cells (UniProt Q96P20 1-1036); assay: GST pulldown in transfected 293T cells (FIG. 3A)
# T1 construct: also called wild-type (WT) NLRP3; not shown: Flag tag
# T1 sequence (Q96P20 whole entry): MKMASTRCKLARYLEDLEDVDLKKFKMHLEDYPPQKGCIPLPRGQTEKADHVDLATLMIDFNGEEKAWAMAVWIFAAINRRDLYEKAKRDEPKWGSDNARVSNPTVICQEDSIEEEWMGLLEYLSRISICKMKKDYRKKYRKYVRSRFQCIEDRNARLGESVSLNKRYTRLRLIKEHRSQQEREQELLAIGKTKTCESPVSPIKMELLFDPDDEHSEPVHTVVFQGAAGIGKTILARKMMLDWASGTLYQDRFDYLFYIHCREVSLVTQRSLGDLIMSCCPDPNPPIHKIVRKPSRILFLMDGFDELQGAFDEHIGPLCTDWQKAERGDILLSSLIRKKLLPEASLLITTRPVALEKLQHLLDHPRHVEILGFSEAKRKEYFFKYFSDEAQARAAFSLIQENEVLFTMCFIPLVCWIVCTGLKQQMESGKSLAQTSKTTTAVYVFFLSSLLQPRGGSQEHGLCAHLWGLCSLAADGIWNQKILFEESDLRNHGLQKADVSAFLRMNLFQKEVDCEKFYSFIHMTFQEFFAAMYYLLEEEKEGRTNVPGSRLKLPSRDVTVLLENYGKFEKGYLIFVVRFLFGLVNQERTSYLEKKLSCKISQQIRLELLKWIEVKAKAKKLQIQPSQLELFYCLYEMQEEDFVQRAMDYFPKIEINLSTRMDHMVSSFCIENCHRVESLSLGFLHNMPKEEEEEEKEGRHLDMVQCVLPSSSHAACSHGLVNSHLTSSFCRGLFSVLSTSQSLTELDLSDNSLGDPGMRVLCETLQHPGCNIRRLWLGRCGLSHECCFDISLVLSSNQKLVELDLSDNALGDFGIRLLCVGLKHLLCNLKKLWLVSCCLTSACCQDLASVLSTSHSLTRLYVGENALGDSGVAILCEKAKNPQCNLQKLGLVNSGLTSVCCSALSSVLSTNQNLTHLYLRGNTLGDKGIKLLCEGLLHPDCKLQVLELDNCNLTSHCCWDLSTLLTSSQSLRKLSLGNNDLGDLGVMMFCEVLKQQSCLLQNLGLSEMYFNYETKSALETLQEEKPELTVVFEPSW
# Sequence of endogenous mouse NLRP3 (bone marrow-derived macrophages and splenocytes of C57BL/6 mice) (Q8R4B8 whole entry): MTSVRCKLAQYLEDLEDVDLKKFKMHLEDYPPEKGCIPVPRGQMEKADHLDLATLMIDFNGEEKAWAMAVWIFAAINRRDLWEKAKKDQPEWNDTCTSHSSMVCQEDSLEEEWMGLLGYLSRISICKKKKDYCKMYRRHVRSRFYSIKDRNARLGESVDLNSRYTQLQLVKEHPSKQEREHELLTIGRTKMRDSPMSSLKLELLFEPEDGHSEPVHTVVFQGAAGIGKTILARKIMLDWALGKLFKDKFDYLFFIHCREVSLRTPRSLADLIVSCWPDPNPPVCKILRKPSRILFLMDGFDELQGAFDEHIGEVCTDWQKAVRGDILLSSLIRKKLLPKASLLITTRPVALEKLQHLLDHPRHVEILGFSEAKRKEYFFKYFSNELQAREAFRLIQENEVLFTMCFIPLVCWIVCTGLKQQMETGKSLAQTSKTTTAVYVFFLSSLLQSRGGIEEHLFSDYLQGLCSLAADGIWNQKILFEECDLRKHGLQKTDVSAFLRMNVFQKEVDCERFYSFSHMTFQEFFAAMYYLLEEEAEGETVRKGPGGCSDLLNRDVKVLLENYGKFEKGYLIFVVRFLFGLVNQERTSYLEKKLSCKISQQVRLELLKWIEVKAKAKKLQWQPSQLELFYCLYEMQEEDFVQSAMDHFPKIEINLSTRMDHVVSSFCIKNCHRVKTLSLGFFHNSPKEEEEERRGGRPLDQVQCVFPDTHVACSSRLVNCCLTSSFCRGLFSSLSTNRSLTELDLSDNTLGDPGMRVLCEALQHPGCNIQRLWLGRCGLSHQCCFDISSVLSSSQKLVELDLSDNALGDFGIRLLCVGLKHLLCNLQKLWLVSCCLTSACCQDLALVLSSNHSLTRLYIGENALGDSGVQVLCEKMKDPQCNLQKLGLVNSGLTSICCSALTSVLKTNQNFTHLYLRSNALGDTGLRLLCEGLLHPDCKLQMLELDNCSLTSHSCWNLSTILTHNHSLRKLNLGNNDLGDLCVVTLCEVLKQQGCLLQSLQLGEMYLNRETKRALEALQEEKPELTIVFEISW
Binder,binding result [1],binding result [2]
B1,binds,
B2,no binding,
B3,,no binding

# Source: patent US20220306707A1 (INDUSTRY UNIVERSITY COOPERATION FOUNDATION HANYANG …, published 2022)
